# Measured values taken from patent US20240317847A1 (Bayer, published 2024).
# Substitutions are numbered along the chain they refer to. Read-outs that look alike come from different tables or passages of the source.
# T1: murine IL-11 (mouse, UniProt P47873 22-199)
# T1 sequence: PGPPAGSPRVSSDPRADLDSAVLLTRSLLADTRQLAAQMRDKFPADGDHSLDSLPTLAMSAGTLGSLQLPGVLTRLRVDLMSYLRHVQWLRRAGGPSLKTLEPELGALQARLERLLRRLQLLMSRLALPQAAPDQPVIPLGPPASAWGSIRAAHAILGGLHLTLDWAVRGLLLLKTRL
# T2: human IL-11 (human, UniProt P20809 22-199)
# T2 sequence: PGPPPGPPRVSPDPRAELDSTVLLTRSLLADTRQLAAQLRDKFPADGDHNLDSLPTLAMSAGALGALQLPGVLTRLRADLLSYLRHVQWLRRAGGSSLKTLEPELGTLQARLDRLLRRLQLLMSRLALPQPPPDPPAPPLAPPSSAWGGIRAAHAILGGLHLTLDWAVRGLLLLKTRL
# T3: cynomolgus IL-11 (cynomolgus, UniProt P20808 22-199)
# T3 sequence: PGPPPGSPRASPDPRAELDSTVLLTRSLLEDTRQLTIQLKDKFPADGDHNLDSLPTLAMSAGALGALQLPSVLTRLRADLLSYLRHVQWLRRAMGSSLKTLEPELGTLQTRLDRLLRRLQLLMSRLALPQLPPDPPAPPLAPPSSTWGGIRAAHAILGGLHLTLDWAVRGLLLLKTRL
# T4: rat IL-11 (rat, UniProt Q99MF5 22-199)
# T4 sequence: T1 sequence with S50N, L84F, G94A, V137A, I138V
# T5: human IL2Ra (human, UniProt P01589 22-240, limits assumed)
# T5 construct: coated on the ELISA plate; also called IL-2 receptor alpha
# T5 sequence (looked up): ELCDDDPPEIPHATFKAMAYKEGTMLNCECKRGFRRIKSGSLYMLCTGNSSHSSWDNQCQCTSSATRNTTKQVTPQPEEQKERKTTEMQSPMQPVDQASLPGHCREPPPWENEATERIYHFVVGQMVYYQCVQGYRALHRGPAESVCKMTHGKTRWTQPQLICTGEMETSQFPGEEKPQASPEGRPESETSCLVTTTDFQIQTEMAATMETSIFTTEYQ
# B1: TPP-23580 (antibody, mouse IgG1, kappa)
# heavy: EVQLVQSGAEVKKPGASVKISCKASGYTFTDYNMDWVKQAPGQRLEWIGDINPHNGGPIYNQKFTGRATLTVDKSASTAYMELSSLRSEDTAVYYCARGELGHWYFDVWGQGTTVTVSSAKTTPPSVYPLAPGSAAQTNSMVTLGCLVKGYFPEPVTVTWNSGSLSSGVHTFPAVLQSDLYTLSSSVTVPSSTWPSETVTCNVAHPASSTKVDKKIVPRDCGCKPCICTVPEVSSVFIFPPKPKDVLTITLTPKVTCVVVDISKDDPEVQFSWFVDDVEVHTAQTQPREEQFNSTFRSVSELPIMHQDWLNGKEFKCRVNSAAFPAPIEKTISKTKGRPKAPQVYTIPPPKEQMAKDKVSLTCMITDFFPEDITVEWQWNGQPAENYKNTQPIMDTDGSYFVYSKLNVQKSNWEAGNTFTCSVLHEGLHNHHTEKSLSHSPGK
# light: DIVLTQSPASLALSPGERATLSCRASKSVSTSGYSYIHWYQQKPGQPPRLLIYLASNLDSGVPARFSGSGSGTDFTLNIHPLEEEDFATYYCQHSRDLPPTFGQGTKLEIKRADAAPTVSIFPPSSEQLTSGGASVVCFLNNFYPKDINVKWKIDGSERQNGVLNSWTDQDSKDSTYSMSSTLTLTKDEYERHNSYTCEATHKTSTSPIVKSFNRNEC
# notes: also called BSN 3C6 2.2-2.1-mIgG1Kappa; BSN 3C6 (WO2019238882)
# Legend:
# murine IL-11 [1] = target: T1, murine IL-11; test: cell-based or functional assay
# human IL-11 [2] = target: T2, human IL-11; test: cell-based or functional assay
# cynomolgus IL-11 = target: T3, cynomolgus IL-11; test: cell-based or functional assay
# rat IL-11 = target: T4, rat IL-11; test: cell-based or functional assay
# human IL-11 [3] = target: T2, human IL-11; test: Tri-complex ELISA, hIL-11 + mIL-11Ra-Fc + hgp130-Fc, inhibition of complex formation
# Experimental: In the Tri-complex ELISA format IL-11 antibodies are tested for their ability to inhibit the formation of a complex consisting of murine or human gp130-Fc fusion protein, with murine or human IL-11, and a murine IL11RA-Fc fusion protein. The assay format was adapted according to FIG. 18 (a, b), depending on whether murine or human IL-11 IgG antibodies were tested.
# (§1) IgG converted antibodies were subjected to the experimental assay procedure described in Example 19 and IC50 [M], respectively efficacy (%) were calculated accordingly.
# human IL2Ra = target: T5, human IL2Ra; test: ELISA on coated IL2Ra, signal ratio to isotype control TPP-10159 at 3.3E-7 M antibody
# Experimental: IL2RA (Peprotech, Germany, #200-02RC) was coated at 1 or 0 μg/ml (buffer only control) in 30 μl coating buffer (Candor, #113500) per well on a 384 well microtiter plate (Maxisorb, Nunc, #460518) over night at 4-8° C. After two washes with 50 μl/well washing buffer (PBS+0.05% Tween, pH 7.4), the plates were incubated for two hours at room temperature with 50 μl/well SmartBlock (Candor, #113500). After blocking, the plates were washed three times with washing buffer. Then, a dilution series of the respective antibody (1E-7 [M] down to 2E-13 [M]) in PBS+0.05% Tween, 10% SmartBlock were added in 30 μl to the microtiter plate and incubated for 90 min at room temperature. After three additional washes, 30 μl anti mouse IgG HRP-conjugated antibody (Biotechne, HAF007), diluted 1:1000 in PBS+0.05% Tween (pH 7.4), were added per well and incubated for one hour. After three additional washes, a mixture of Amplex red (Invitrogen, #12222, 10 mM stock solution in DMSO) 1:1000 diluted in PBS and H2O2 (30%, Merck, #107209)) diluted 1:10000 in PBS were added as substrate with 30 μl per well and incubated for 20 min in the dark. Relative fluorescence was measured with a microtiter plate reader at 535/590 nm.
# IgG converted antibodies TPP-were tested for binding to IL2Ra as described in Example 20. The ratios of the signals obtained at an antibody concentration of 3.3E-7 [M] for IgG converted antibody versus the isotype control TPP-10159 were calculated and are shown in Table E22.
# murine IL-11 [4] = target: T1, murine IL-11; test: cell-based or functional assay; remark: listed apart in the source
# human IL-11 [5] = target: T2, human IL-11; test: cell-based or functional assay; remark: listed apart in the source
# murine IL-11 [6] = target: T1, murine IL-11; test: Tri-complex ELISA, mIL-11 + mIL-11Ra-Fc + mgp130-Fc, inhibition of complex formation
# Experimental: In a first step, 25 μl of goat anti human IgG (Sigma, #12136), diluted 1:1000 in coating buffer (Candor, #121125) was coated on the plate at 4° C. overnight. Next day, the plate was washed one time with 50 μl PBST and then blocked with 50 μl SmartBlock (Candor, #113125) for one hour at room temperature (RT). […] After three additional washes of the coated and blocked microtiter plate with PBS-T, 25 μl of each mixture were added and the assay plate was incubated for one hour at room temperature. After three additional washes, anti-mouse-gp130 biotinylated antibody (R&D, #BAF468) or anti-human gp130 biotinylated antibody (R&D, #BAF228), both 1:1000 in 10% SmartBlock PBS-T, was added and incubated for 1 hour at RT. After three additional washes, a Streptavidin-Peroxidase conjugate (Sigma, #S5512) 1:1000 in SmartBlock PBS-T was added and incubated for one hour at room temperature. After a final three washes, AmplexRed (Fisher Scientific, A12222), 1/1000 in PBS, 0,003% H₂O₂, was added as substrate and incubated for 15 min at RT in the dark. Then, the fluorescence was measured with a plate reader at 535/595 nm. Signals from dose responses were used to calculate IC50 values using GraphPad Prism software. Efficacy was calculated as [(signal measured at lowest antibody concentration−signal measured at the highest antibody concentration)×100] divided by (signal measured at lowest antibody concentration−signal measured in the absence of antibody at an IL11 concentration of 8.2E-11 [M]).
# as §1
binder,measurement,setting,value
B1,"Efficacy (%), Stat3 reporter gene assay",murine IL-11 [1],88.9%
same,"IC50, Stat3 reporter gene assay",murine IL-11 [1],0.0079 µM
same,"Efficacy (%), Stat3 reporter gene assay",human IL-11 [2],64%
same,"Efficacy (%), Stat3 reporter gene assay",cynomolgus IL-11,21.9%
same,"Efficacy (%), Stat3 reporter gene assay",rat IL-11,62.2%
same,"IC50, Stat3 reporter gene assay",rat IL-11,0.014 µM
same,Efficacy (%),human IL-11 [3],45.8%
same,IC50,human IL-11 [3],0.0034 µM
same,Antibody/Isotype Control Ratio of IL-2Ra Binding Signals,human IL2Ra,2.2 ratio
same,"Efficacy (%), Stat3 reporter gene assay",murine IL-11 [4],46.7%
same,"IC50, Stat3 reporter gene assay",murine IL-11 [4],0.028 µM
same,"Efficacy (%), Stat3 reporter gene assay",human IL-11 [5],68.6%
same,"IC50, Stat3 reporter gene assay",human IL-11 [5],0.0087 µM
same,Efficacy (%),murine IL-11 [6],45.8%
same,IC50,murine IL-11 [6],0.031 µM
